Assay results taken from publication PMC5952258 (ACS Infectious Diseases, 2018).

Biological target: the molecule itself
Assay: crystal structure; sitting drop vapor diffusion at 18 °C; 25% (w/v) PEG 3350, 0.1 M Bis-Tris pH 5.6, 0.1 M ammonium sulfate; resolved to 2.0 Å

B1: Rv2466c C22S mutant (enzyme)
chain: not shown
- binding result: binds
